According to patent US20220340657A1:
pEC50, pKd: −log10 of the molar value.

How the values were obtained:
[1] = target: cyno-LAG3-hFc (cynomolgus monkey); test: ELISA
[2] = target: cyno-LAG3-hFc (cynomolgus monkey); test: Biacore

- pEC50 [1]: 7.45
- pKd [2]: 6.08
Substance: positive control antibody Ref (BMS-986016)
